± gives the standard deviation of the averaged measurements.
System: ATP
Experiment: switch fluorescence ratio, 500 uM ATP over buffer (Cy3 cluster intensity, sum of 5 cycles each) (fold (ratio)); higher = stronger signal-on switching upon ATP binding; sequences stand for … in TCGTCGGCAGCGTCAGATGTGTATAAGAGACAGTTTTTTTTTTTTTTTTTTTTTTTTT…TC
Conditions: aptamer strand: ATP DNA aptamer (quencher-CACCTGGGGGAGTATTGCGGAGGAAGG + anchor), 100 nM annealed; ATP concentration: 500 uM
Method in brief: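 Five buffer/ATP imaging cycles were run on Cy3-labelled switching-strand clusters on a modified Illumina MiSeq flow-cell, with NaOH stripping and re-annealing between cycles. In each cycle, clusters annealed to 100 nM quencher-labelled ATP aptamer were imaged in selection buffer, then after 15 min with 500 uM ATP at 22 °C. Per cluster, the fluorescence ratio is summed target-cycle over summed buffer-cycle Cy3 intensity, averaged per switch-domain sequence. Only clusters within 100-1000 RFU were kept.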
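Note: ATP exposure 15 min at 22 °C before imaging.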

Sequence	switch fluorescence ratio
TGGTTCGAT	0.978 ± 0.015
AGCGTGTGCG	0.989 ± 0.055
TGGGGTAAAC	0.997 ± 0.024
ATTCCGATTG	1.07 ± 0.031
AAGCTGGCTT	1.024 ± 0.0056
TGGGCCGAGG	1.12 ± 0.063
GATTCCGGAC	1.032 ± 0.0054
AGAGCTGGGA	0.965 ± 0.015
AAAGCGGTAT	1.038 ± 0.007
ATTTTTGGCT	0.995 ± 0.042
TTTGGACGCA	1.12 ± 0.12
CATGGGCAGC	0.997 ± 0.016
GCCTGCGGGG	1.04 ± 0.046
TCAGCTGCAA	4.21 ± 0.32
CGCGAAGTTG	0.999 ± 0.057
TGAAACGTAT	0.993 ± 0.023
TGGCTCGAGC	1.01 ± 0.017
TAAGTTAATA	1.02 ± 0.016
GGTATCTGTA	1 ± 0.023
GGGGCGGGCC	0.971 ± 0.021
GAGTTGGGAG	1.01 ± 0.032
TATGAAAAGT	0.9926 ± 0.0072
ATGGAAAGCA	1.05 ± 0.029

Sequence	switch fluorescence ratio
ACCCGTTGCC	1.03 ± 0.057
CTCGGGGATG	0.976 ± 0.013
TCACGGTGTC	1.11 ± 0.026
TTTTTATGAG	1 ± 0.036
TTGGATTGAC	1.06 ± 0.025
TCGGGTTGAC	1.02 ± 0.025
GGTTTGAGGG	0.985 ± 0.028
TAGCCGCTTT	1.065 ± 0.0087
TAATATAACC	1.04 ± 0.014
GTCCCGACTT	1.01 ± 0.013
CACAGTGAAG	0.985 ± 0.051
TGGTTGGTC	0.965 ± 0.039
CGGGTTGGAA	0.9731 ± 0.0091
AAAGGAGGGG	0.983 ± 0.02
TCATTATTCG	0.985 ± 0.027
AAATGGAGGA	0.988 ± 0.032
TAGGGATATA	0.985 ± 0.035
TTAGCTGCGG	0.9951 ± 0.0042
TTTGTGTATA	0.976 ± 0.057
AAGGCCAATA	1.05 ± 0.033
TGGTGATAGT	0.965 ± 0.035
CATGTTTTGT	1.02 ± 0.017
AGGTACTCCG	1.09 ± 0.015

Sequence	switch fluorescence ratio
GTTTTTTAAG	0.9877 ± 0.0089
TGGTTAGGG	0.988 ± 0.019
TTTGAGCTGG	0.996 ± 0.035
GCCGTAGCTC	1.2 ± 0.078
AAAATTTGGG	1.02 ± 0.025
TGGAAGAAAT	1.02 ± 0.011
GTATGGGAAA	1.04 ± 0.054
GCCTCACCCG	1.26 ± 0.016
GATCCACGGT	1.03 ± 0.027
GTCCGGGGGT	1.07 ± 0.11
GGTTGTGGGA	0.98 ± 0.053
TTCCCAAATT	1.19 ± 0.19
AAGTGAAGCT	1 ± 0.015
TGGTTACTCG	0.984 ± 0.034
ACGGGTTAAT	1.01 ± 0.026
CGGGGAAGGA	1.016 ± 0.006
TCGATTGGGG	0.9682 ± 0.0089
GTAGTTGATG	0.9665 ± 0.0026
TTTATTTTCC	1.05 ± 0.033
TTTAAAAAAA	1.02 ± 0.027
AGAATTGGCA	1 ± 0.037
GGTAAGTAGG	1.03 ± 0.042
TAGGAGTTAT	1.01 ± 0.04

Sequence	switch fluorescence ratio
AGTATGGTAG	1.0145 ± 0.00092
AGAGGCCGGG	1 ± 0.032
TTTGATGAGA	1 ± 0.028
AGGCTTGGTG	0.988 ± 0.012
CGGAGGACCA	0.978 ± 0.023
GGCTTTACCT	1.101 ± 0.0097
GGGGCGAGTG	1 ± 0.035
CCAAAGGGGA	1.15 ± 0.27
TTATCTGGAA	1.06 ± 0.055
TTGAATGGGG	1.05 ± 0.043
CTACGGGGCT	1.01 ± 0.02
TCGGTAGGGC	1.025 ± 0.0089
CGCATAAATA	1.16 ± 0.034
AGTAAGTGGG	0.956 ± 0.048
GCGAGGAGTA	1.01 ± 0.024
CGTGGGGACT	0.991 ± 0.027
ATGGCTAATA	0.9806 ± 0.0057
CATGGGAAAT	1.008 ± 0.005
AGTTCGTAAA	1.02 ± 0.029
GGTTTTTGGC	1.02 ± 0.048
TGGGCACGGT	0.969 ± 0.049
GGGTGGCCTG	1.03 ± 0.077
GTTTTAATTC	0.9628 ± 0.0036

Sequence	switch fluorescence ratio
GGGGGCGTAT	1.051 ± 0.0072
TTTTCCTACG	2.38 ± 1.6
AGTGTCGTGG	1 ± 0.046
GCGCATGGTA	1.02 ± 0.026
CAGGCGACTG	0.9706 ± 0.0041
AATGTGTGGG	1.01 ± 0.02
GTTACAGGTC	1.006 ± 0.0019
ATGGGGTGTC	0.943 ± 0.067
TGATTTCATT	1.02 ± 0.048
TCACGCCTTT	1.05 ± 0.033
TTTTTAGTAC	0.99 ± 0.013
TTTTGTGTTT	0.997 ± 0.028
CTCTAAGT	1.01 ± 0.017
CGTACGGCTC	1.058 ± 0.0038
CATAGTTACG	0.994 ± 0.047
CGGTCGCTGG	0.991 ± 0.026
GTTGCGGTTG	0.986 ± 0.039
GGGGGTTAAG	0.988 ± 0.029
TTGACAGGGC	0.952 ± 0.057
CGGCAGCGAG	1.078 ± 0.0015
ACAGGCGGCT	1.1 ± 0.061
AGGGGGTGCG	0.988 ± 0.029
TCGGGTTCGG	0.992 ± 0.032

Sequence	switch fluorescence ratio
TATAGGTGAG	1.01 ± 0.03
CATCCGTCCG	1.353 ± 0.0037
TCATTTGTTG	1.01 ± 0.035
CTTGAAAGAT	0.99786 ± 0.00087
ACAGTCGGTG	1.028 ± 0.0066
TACCCTTCGT	1.11 ± 0.013
TCACGGGGTT	1.01 ± 0.039
ATTAAGGTCG	1.07 ± 0.023
AAAGTTGGTA	0.967 ± 0.055
AATGTTTTCT	1.05 ± 0.057
GGGTACGGGA	1.06 ± 0.069
CGCCTGGCGT	0.9568 ± 0.0077
TTTTAGCTTC	1.03 ± 0.017
AGAAAGTCAA	1.0199 ± 1.9e-05
TTTGAACTTC	1.27 ± 0.38
GGTTAAATTT	0.987 ± 0.021
CGGAGGACGG	1.03 ± 0.032
GGCCTATAAC	1 ± 0.021
ATGGGGATCA	1.017 ± 0.0022
ACTAGGGTGC	1.14 ± 0.014
GTGAGGTGCA	1.01 ± 0.052
AAGGGGGCGA	0.982 ± 0.019
TAATGGGTGG	1.02 ± 0.083

Sequence	switch fluorescence ratio
TAAGTTAGGT	1.03 ± 0.1
AAGGTCGGTA	1.001 ± 0.0024
CCCACCGTTG	1.17 ± 0.03
TAGCGCAGGC	0.996 ± 0.025
CGGAGATACG	1.02 ± 0.029
TGAAGCATTG	1.35 ± 0.38
CCGGGGAAGT	0.978 ± 0.031
ATGTAAAATT	0.972 ± 0.038
TCAGGGCTGT	0.994 ± 0.029
AAAAGAGCGC	1.08 ± 0.072
TGGTATTTAT	1.012 ± 0.0072
CGTGACGGGG	0.978 ± 0.043
TTACTTATTT	1.04 ± 0.035
ATCTTGGGGC	0.984 ± 0.023
TAAGAAATGT	1.04 ± 0.04
GGGCATGCAG	0.966 ± 0.018
TCTGTTATCG	0.983 ± 0.043
TTAATTTATC	0.9982 ± 0.0026
GTTCTCTGGG	0.987 ± 0.034
